The labels stand for the following.
B4: human PQBP1(1–94) including WWD (domain or fragment, UniProt O60828 1-94, looked up)
chain: MPLPVALQTRLAKRGILKHLEPEPEEEIIAEDYDDDPVDYEATRLEGLPPSWYKVFDPSCGLPYYWNADTDLVSWLSPHDPNSVVTKSAKKLRS
notes: human PQBP1, residues 1-94, including the WW domain (WWD); Used in SPR and in NMR; also called WWD of PQBP1; PQBP1-WWD

Details in all cases: both partners purified
The target of experiment [1] is B4. As to the kind of experiment: NMR titration; 1H-15N HSQC of labelled tau fragments without and with PQBP1(1–94), molar ratio Tau:PQBP1(1–94) 1:5; 0.1–0.5 mM tau, 20 mM sodium phosphate pH 7.0, 20 mM NaCl, 1 mM dithiothreitol, 283 K.
Experiment [2] deals with T1, human Tau 410 full-length protein (3R tau), SPR construct (human, UniProt P10636-5 1-410).
T1 construct: human tau, splice form Tau 410 (a representative 3R tau), 410 residues; numbers count on: Tau 410; source: E. coli Rosetta(DE3)pLysS, purified (Ni-NTA agarose); not shown: His-tag, N-terminal, kept
As to the kind of experiment: SPR; Tau proteins immobilised on CM5 sensor chips at 1200 RU; PQBP1 constructs loaded at multiple doses for 120 s; equilibrium response; BIAcore J, 25 °C; 10 mM Tris-HCl pH 8.5, 150 mM NaCl, 3 mM EDTA, 0.005% Tween-20. A general note: SPR reads the build-up and loss of mass on a sensor chip optically.

In experiment [3] the target is T2, human Tau 441 full-length protein (4R tau), SPR construct (human, UniProt P10636-8 1-441).
T2 construct: source: E. coli Rosetta(DE3)pLysS, purified (Ni-NTA agarose); not shown: His-tag, N-terminal, kept
The description is as above.

The target in experiment [4] is T3, Tau 410 P179A (human, UniProt P10636-5 1-410, P179A).
T3 construct: human tau, splice form Tau 410, 410 residues, with P179A; numbers count on: Tau 410; also called Tau P179A; source: E. coli Rosetta(DE3)pLysS, purified (Ni-NTA agarose); not shown: His-tag, N-terminal, kept
The description is as above.

In experiment [5] the target is T4, Tau 410 P216A (human, UniProt P10636-5 1-410, P216A).
T4 construct: human tau, splice form Tau 410, 410 residues, with P216A; numbers count on: Tau 410; also called Tau P216A; source: E. coli Rosetta(DE3)pLysS, purified (Ni-NTA agarose); not shown: His-tag, N-terminal, kept
The experiment is described as above.

The target of experiment [6] is T5, Tau 441 P301S (human, UniProt P10636-8 1-441, P301S).
T5 construct: also called Tau P301S; FTLD-linked disease mutant of tau; source: bought: Signal Chem (T08-56GN)
The experiment is described as above.

The target in experiment [7] is T6, Tau(244–341) of Tau 410 (human, UniProt P10636-5 244-341).
T6 construct: human tau, splice form Tau 410, residues 244-341 (repeat region); numbers count on: Tau 410; Isotope-labelled (15N); also called the repeat region
In words: NMR titration; 1H-15N HSQC of labelled tau fragments without and with PQBP1(1–94), molar ratio Tau:PQBP1(1–94) 1:5; 0.1–0.5 mM tau, 20 mM sodium phosphate pH 7.0, 20 mM NaCl, 1 mM dithiothreitol, 283 K.

T2 sequence (P10636 other isoform, or with tags, fused parts or gaps): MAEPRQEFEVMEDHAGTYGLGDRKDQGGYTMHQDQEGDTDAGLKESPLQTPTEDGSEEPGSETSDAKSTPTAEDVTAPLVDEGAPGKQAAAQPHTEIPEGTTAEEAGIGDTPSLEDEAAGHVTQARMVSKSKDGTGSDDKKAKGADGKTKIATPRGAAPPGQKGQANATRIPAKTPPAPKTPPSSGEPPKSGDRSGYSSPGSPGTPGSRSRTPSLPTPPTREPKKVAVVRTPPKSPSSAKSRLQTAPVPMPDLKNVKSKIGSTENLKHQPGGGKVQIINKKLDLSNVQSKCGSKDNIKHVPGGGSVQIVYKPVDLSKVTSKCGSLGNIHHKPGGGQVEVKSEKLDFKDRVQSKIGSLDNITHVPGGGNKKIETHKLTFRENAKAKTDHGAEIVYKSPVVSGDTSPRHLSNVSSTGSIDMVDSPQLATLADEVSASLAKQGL
T1 sequence (P10636 other isoform, or with tags, fused parts or gaps): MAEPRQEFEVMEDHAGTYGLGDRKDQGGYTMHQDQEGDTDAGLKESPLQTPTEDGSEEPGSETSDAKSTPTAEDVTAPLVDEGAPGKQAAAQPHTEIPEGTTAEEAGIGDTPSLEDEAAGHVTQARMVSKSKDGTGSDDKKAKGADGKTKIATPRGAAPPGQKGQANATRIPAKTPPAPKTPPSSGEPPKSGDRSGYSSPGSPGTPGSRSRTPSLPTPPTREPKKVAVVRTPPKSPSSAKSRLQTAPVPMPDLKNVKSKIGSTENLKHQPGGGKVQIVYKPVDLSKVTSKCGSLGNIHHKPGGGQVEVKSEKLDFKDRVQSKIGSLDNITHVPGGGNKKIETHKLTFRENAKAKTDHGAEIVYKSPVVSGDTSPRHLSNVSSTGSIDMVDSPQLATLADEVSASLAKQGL
T4 sequence (P10636 other isoform, or with tags, fused parts or gaps P216A | P216A | P216A P216A): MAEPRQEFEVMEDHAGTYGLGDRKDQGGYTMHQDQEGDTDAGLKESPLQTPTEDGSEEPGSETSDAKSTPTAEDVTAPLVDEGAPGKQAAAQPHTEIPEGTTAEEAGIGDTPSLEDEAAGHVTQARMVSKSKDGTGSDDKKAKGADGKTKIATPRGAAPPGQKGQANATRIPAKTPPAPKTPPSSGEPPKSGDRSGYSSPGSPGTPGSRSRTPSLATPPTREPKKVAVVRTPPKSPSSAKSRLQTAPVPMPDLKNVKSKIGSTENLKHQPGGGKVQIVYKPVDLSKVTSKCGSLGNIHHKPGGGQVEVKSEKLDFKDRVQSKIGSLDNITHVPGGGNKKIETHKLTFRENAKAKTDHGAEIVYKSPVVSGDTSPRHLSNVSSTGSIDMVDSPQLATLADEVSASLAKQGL
T3 sequence (P10636 other isoform, or with tags, fused parts or gaps P179A | P179A | P179A P179A): as the sequence (P10636 other isoform, or with tags, fused parts or gaps P216A | P216A | P216A P216A) above, with P179A, A216P counted along it
T6 sequence (P10636 other isoform, or with tags, fused parts or gaps): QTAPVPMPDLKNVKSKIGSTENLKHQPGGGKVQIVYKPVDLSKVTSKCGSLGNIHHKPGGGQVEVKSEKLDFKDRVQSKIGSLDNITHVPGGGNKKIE
T5 sequence (P10636 other isoform, or with tags, fused parts or gaps P301S | P301S | P301S P301S): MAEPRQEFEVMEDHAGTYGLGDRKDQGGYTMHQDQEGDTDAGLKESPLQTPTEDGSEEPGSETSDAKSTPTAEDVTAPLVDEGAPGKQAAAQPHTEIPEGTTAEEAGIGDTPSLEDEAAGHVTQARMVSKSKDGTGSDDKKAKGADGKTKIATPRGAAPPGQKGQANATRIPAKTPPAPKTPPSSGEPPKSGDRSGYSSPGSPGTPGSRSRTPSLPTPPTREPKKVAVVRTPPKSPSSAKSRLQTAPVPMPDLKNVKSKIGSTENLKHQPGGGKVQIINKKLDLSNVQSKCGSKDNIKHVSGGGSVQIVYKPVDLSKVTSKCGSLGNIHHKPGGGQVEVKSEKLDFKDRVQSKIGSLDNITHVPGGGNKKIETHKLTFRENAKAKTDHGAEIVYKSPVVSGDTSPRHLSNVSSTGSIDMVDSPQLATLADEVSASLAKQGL

B1: Tau(151–197) of Tau 410 (domain or fragment, human, UniProt P10636-5 151-197, looked up)
chain: IATPRGAAPPGQKGQANATRIPAKTPPAPKTPPSSGEPPKSGDRSGY
notes: numbers count on: Tau 410; pOPHLT-s has a TEV protease cleavage site after the His-tag and lipoyl domain; Isotope-labelled (15N); also called proline-rich region
Regarding B1, the binding result in experiment [1] is reported as “binds”.

B2: Tau(198–243) of Tau 410 (domain or fragment, human, UniProt P10636-5 198-243, looked up)
chain: SSPGSPGTPGSRSRTPSLPTPPTREPKKVAVVRTPPKSPSSAKSRL
notes: human tau, splice form Tau 410, residues 198-243; numbers count on: Tau 410; pOPHLT-s has a TEV protease cleavage site after the His-tag and lipoyl domain; Isotope-labelled (15N); also called proline-rich region
With B2, in experiment [1], the binding result is given as “binds”.

B3: human PQBP1 full-length form (PQBP1-FL) (natural protein, UniProt O60828 1-265, looked up)
chain: MPLPVALQTRLAKRGILKHLEPEPEEEIIAEDYDDDPVDYEATRLEGLPPSWYKVFDPSCGLPYYWNADTDLVSWLSPHDPNSVVTKSAKKLRSSNADAEEKLDRSHDKSDRGHDKSDRSHEKLDRGHDKSDRGHDKSDRDRERGYDKVDRERERDRERDRDRGYDKADREEGKERRHHRREELAPYPKSKKAVSRKDEELDPMDPSSYSDAPRGTWSTGLPKRNEAKTGADTTAAGPLFQQRPYPSPGAVLRANAEASRTKQQD
notes: also called full-length PQBP1
Take B3: the binding result in experiment [2], in experiment [3], in experiment [4], in experiment [5] and in experiment [6] was “binds” throughout.

For the molecule B4, the binding result in experiment [7], in experiment [2] and in experiment [3] was “binds” each time.

The values above are taken from paper PMC8592984, “Tau activates microglia via the PQBP1-cGAS-STING pathway to promote brain inflammation” (Nature Communications, 2021).
